In the supplement of paper PMC10567573:

B1: CCDC89 (parent)
chain: LNAELEEKMMQEAEKLKAQGEYSR

Variants of: B1
Assay: protein stability index of a GFP-peptide fusion (GPS, HEK-293T) (PSI 1-6); higher = more stable
Conditions: c terminus: a fixed tail appended
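Note: lentivirally expressed fusions sorted by FACS into six bins by GFP to DsRed ratio, PSI derived from sequencing read proportions per bin multiplied by bin number.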

Q: Which protein stability index does the source give for LNAELEEKMMQEAEKEKAQGEYSR [L16E] here?
A: The protein stability index was 5.79.

Q: Which protein stability index does the source give for LNAELEEKMMQEAEKGKAQGEYSR [L16G] here?
A: Its protein stability index is 5.09.

Q: Which protein stability index does the source give for LNAELEEKMMQEAEKIKAQGEYSR [L16I] here?
A: Its protein stability index is 5.82.

Q: Which protein stability index does the source give for LNAELEEKMMQEAEKKKAQGEYSR [L16K] here?
A: Its protein stability index is 4.85.

Q: Which protein stability index does the source give for LNAELEEKMMQEAEKNKAQGEYSR [L16N] here?
A: Its protein stability index is 5.17.

Q: For LNAELEEKMMQEAEKPKAQGEYSR [L16P], which protein stability index is on record?
A: The protein stability index was 5.68.

Q: For LNAELEEKMMQEAEKQKAQGEYSR [L16Q], which protein stability index is on record?
A: The protein stability index was 4.65.

Q: With LNAELEEKMMQEAEKSKAQGEYSR [L16S] as the variant, how does the protein stability index read?
A: Its protein stability index is 5.76.

Q: For LNAELEEKMMQEAEKTKAQGEYSR [L16T], which protein stability index is on record?
A: The protein stability index was 5.14.

Q: For LNAELEEKMMQEAEKVKAQGEYSR [L16V], which protein stability index is on record?
A: The protein stability index was 4.97.

Q: For LNAELEEKMMQEAEKWKAQGEYSR [L16W], which protein stability index is on record?
A: The protein stability index was 4.6.

Q: With LNAELEEKMMQEAEKYKAQGEYSR [L16Y] as the variant, how does the protein stability index read?
A: Its protein stability index is 4.37.

Q: With LNAELEEKMMQEAEKLCAQGEYSR [K17C] as the variant, how does the protein stability index read?
A: The protein stability index was 4.02.

Q: With LNAELEEKMMQEAEKLDAQGEYSR [K17D] as the variant, how does the protein stability index read?
A: Its protein stability index is 5.47.

Q: For LNAELEEKMMQEAEKLFAQGEYSR [K17F], which protein stability index is on record?
A: Its protein stability index is 4.3.

Q: With LNAELEEKMMQEAEKLGAQGEYSR [K17G] as the variant, how does the protein stability index read?
A: Its protein stability index is 4.93.

Q: For LNAELEEKMMQEAEKLHAQGEYSR [K17H], which protein stability index is on record?
A: Its protein stability index is 3.87.

Q: For LNAELEEKMMQEAEKLIAQGEYSR [K17I], which protein stability index is on record?
A: Its protein stability index is 4.72.

Q: Which protein stability index does the source give for LNAELEEKMMQEAEKLLAQGEYSR [K17L] here?
A: Its protein stability index is 4.54.

Q: Which protein stability index does the source give for LNAELEEKMMQEAEKLPAQGEYSR [K17P] here?
A: The protein stability index was 5.65.

Q: Which protein stability index does the source give for LNAELEEKMMQEAEKLQAQGEYSR [K17Q] here?
A: Its protein stability index is 5.22.

Q: For LNAELEEKMMQEAEKLRAQGEYSR [K17R], which protein stability index is on record?
A: Its protein stability index is 4.41.

Q: With LNAELEEKMMQEAEKLVAQGEYSR [K17V] as the variant, how does the protein stability index read?
A: Its protein stability index is 4.4.

Q: With LNAELEEKMMQEAEKLWAQGEYSR [K17W] as the variant, how does the protein stability index read?
A: Its protein stability index is 3.79.

Q: Which protein stability index does the source give for LNAELEEKMMQEAEKLYAQGEYSR [K17Y] here?
A: Its protein stability index is 4.43.

Q: With LNAELEEKMMQEAEKLKCQGEYSR [A18C] as the variant, how does the protein stability index read?
A: Its protein stability index is 4.79.

Q: With LNAELEEKMMQEAEKLKDQGEYSR [A18D] as the variant, how does the protein stability index read?
A: Its protein stability index is 4.95.

Q: Which protein stability index does the source give for LNAELEEKMMQEAEKLKFQGEYSR [A18F] here?
A: Its protein stability index is 4.28.

Q: With LNAELEEKMMQEAEKLKGQGEYSR [A18G] as the variant, how does the protein stability index read?
A: The protein stability index was 4.43.

Q: With LNAELEEKMMQEAEKLKHQGEYSR [A18H] as the variant, how does the protein stability index read?
A: Its protein stability index is 4.15.

Q: Which protein stability index does the source give for LNAELEEKMMQEAEKLKIQGEYSR [A18I] here?
A: Its protein stability index is 4.32.

Q: For LNAELEEKMMQEAEKLKLQGEYSR [A18L], which protein stability index is on record?
A: Its protein stability index is 3.87.

Q: Which protein stability index does the source give for LNAELEEKMMQEAEKLKMQGEYSR [A18M] here?
A: Its protein stability index is 4.71.

Q: With LNAELEEKMMQEAEKLKNQGEYSR [A18N] as the variant, how does the protein stability index read?
A: Its protein stability index is 5.09.

Q: With LNAELEEKMMQEAEKLKPQGEYSR [A18P] as the variant, how does the protein stability index read?
A: Its protein stability index is 4.7.

Q: With LNAELEEKMMQEAEKLKQQGEYSR [A18Q] as the variant, how does the protein stability index read?
A: The protein stability index was 5.3.

Q: For LNAELEEKMMQEAEKLKRQGEYSR [A18R], which protein stability index is on record?
A: The protein stability index was 4.31.

Q: For LNAELEEKMMQEAEKLKTQGEYSR [A18T], which protein stability index is on record?
A: Its protein stability index is 5.07.

Q: With LNAELEEKMMQEAEKLKWQGEYSR [A18W] as the variant, how does the protein stability index read?
A: Its protein stability index is 4.15.

Q: Which protein stability index does the source give for LNAELEEKMMQEAEKLKAAGEYSR [Q19A] here?
A: The protein stability index was 5.24.

Q: Which protein stability index does the source give for LNAELEEKMMQEAEKLKACGEYSR [Q19C] here?
A: The protein stability index was 4.66.

Q: Which protein stability index does the source give for LNAELEEKMMQEAEKLKADGEYSR [Q19D] here?
A: Its protein stability index is 5.85.

Q: With LNAELEEKMMQEAEKLKAEGEYSR [Q19E] as the variant, how does the protein stability index read?
A: Its protein stability index is 5.84.

Q: Which protein stability index does the source give for LNAELEEKMMQEAEKLKAFGEYSR [Q19F] here?
A: Its protein stability index is 3.64.

Q: Which protein stability index does the source give for LNAELEEKMMQEAEKLKAGGEYSR [Q19G] here?
A: The protein stability index was 4.95.

Q: For LNAELEEKMMQEAEKLKAHGEYSR [Q19H], which protein stability index is on record?
A: Its protein stability index is 4.74.

Q: For LNAELEEKMMQEAEKLKAIGEYSR [Q19I], which protein stability index is on record?
A: Its protein stability index is 3.83.

Q: For LNAELEEKMMQEAEKLKAKGEYSR [Q19K], which protein stability index is on record?
A: The protein stability index was 5.3.

Q: With LNAELEEKMMQEAEKLKALGEYSR [Q19L] as the variant, how does the protein stability index read?
A: Its protein stability index is 2.99.

Q: With LNAELEEKMMQEAEKLKAMGEYSR [Q19M] as the variant, how does the protein stability index read?
A: The protein stability index was 4.13.

Q: For LNAELEEKMMQEAEKLKANGEYSR [Q19N], which protein stability index is on record?
A: The protein stability index was 4.82.

Q: For LNAELEEKMMQEAEKLKAPGEYSR [Q19P], which protein stability index is on record?
A: Its protein stability index is 5.12.

Q: With LNAELEEKMMQEAEKLKASGEYSR [Q19S] as the variant, how does the protein stability index read?
A: Its protein stability index is 5.19.

Q: For LNAELEEKMMQEAEKLKATGEYSR [Q19T], which protein stability index is on record?
A: Its protein stability index is 5.18.

Q: With LNAELEEKMMQEAEKLKAVGEYSR [Q19V] as the variant, how does the protein stability index read?
A: Its protein stability index is 5.57.

Q: Which protein stability index does the source give for LNAELEEKMMQEAEKLKAWGEYSR [Q19W] here?
A: Its protein stability index is 4.62.

Q: For LNAELEEKMMQEAEKLKAYGEYSR [Q19Y], which protein stability index is on record?
A: The protein stability index was 2.53.

Q: With LNAELEEKMMQEAEKLKAQAEYSR [G20A] as the variant, how does the protein stability index read?
A: The protein stability index was 4.98.

Q: With LNAELEEKMMQEAEKLKAQCEYSR [G20C] as the variant, how does the protein stability index read?
A: The protein stability index was 2.96.

Q: With LNAELEEKMMQEAEKLKAQEEYSR [G20E] as the variant, how does the protein stability index read?
A: The protein stability index was 4.82.

Q: With LNAELEEKMMQEAEKLKAQHEYSR [G20H] as the variant, how does the protein stability index read?
A: The protein stability index was 4.35.

Q: For LNAELEEKMMQEAEKLKAQIEYSR [G20I], which protein stability index is on record?
A: Its protein stability index is 3.68.

Q: For LNAELEEKMMQEAEKLKAQKEYSR [G20K], which protein stability index is on record?
A: The protein stability index was 5.22.

Q: For LNAELEEKMMQEAEKLKAQLEYSR [G20L], which protein stability index is on record?
A: The protein stability index was 2.99.

Q: Which protein stability index does the source give for LNAELEEKMMQEAEKLKAQNEYSR [G20N] here?
A: Its protein stability index is 4.99.

Q: Which protein stability index does the source give for LNAELEEKMMQEAEKLKAQPEYSR [G20P] here?
A: The protein stability index was 5.43.

Q: For LNAELEEKMMQEAEKLKAQREYSR [G20R], which protein stability index is on record?
A: Its protein stability index is 4.85.

Q: With LNAELEEKMMQEAEKLKAQSEYSR [G20S] as the variant, how does the protein stability index read?
A: The protein stability index was 4.91.

Q: Which protein stability index does the source give for LNAELEEKMMQEAEKLKAQVEYSR [G20V] here?
A: The protein stability index was 5.31.

Q: With LNAELEEKMMQEAEKLKAQYEYSR [G20Y] as the variant, how does the protein stability index read?
A: Its protein stability index is 4.44.

Q: For LNAELEEKMMQEAEKLKAQGAYSR [E21A], which protein stability index is on record?
A: The protein stability index was 4.77.

Q: For LNAELEEKMMQEAEKLKAQGCYSR [E21C], which protein stability index is on record?
A: Its protein stability index is 4.29.

Q: With LNAELEEKMMQEAEKLKAQGDYSR [E21D] as the variant, how does the protein stability index read?
A: Its protein stability index is 4.92.

Q: Which protein stability index does the source give for LNAELEEKMMQEAEKLKAQGGYSR [E21G] here?
A: Its protein stability index is 4.17.

Q: Which protein stability index does the source give for LNAELEEKMMQEAEKLKAQGHYSR [E21H] here?
A: The protein stability index was 4.47.

Q: With LNAELEEKMMQEAEKLKAQGIYSR [E21I] as the variant, how does the protein stability index read?
A: The protein stability index was 4.62.

Q: For LNAELEEKMMQEAEKLKAQGKYSR [E21K], which protein stability index is on record?
A: Its protein stability index is 5.46.

Q: With LNAELEEKMMQEAEKLKAQGLYSR [E21L] as the variant, how does the protein stability index read?
A: The protein stability index was 4.16.

Q: Which protein stability index does the source give for LNAELEEKMMQEAEKLKAQGMYSR [E21M] here?
A: The protein stability index was 4.76.

Q: For LNAELEEKMMQEAEKLKAQGNYSR [E21N], which protein stability index is on record?
A: The protein stability index was 4.79.

Q: For LNAELEEKMMQEAEKLKAQGRYSR [E21R], which protein stability index is on record?
A: The protein stability index was 4.98.

Q: Which protein stability index does the source give for LNAELEEKMMQEAEKLKAQGSYSR [E21S] here?
A: Its protein stability index is 4.39.

Q: With LNAELEEKMMQEAEKLKAQGTYSR [E21T] as the variant, how does the protein stability index read?
A: The protein stability index was 4.19.

Q: For LNAELEEKMMQEAEKLKAQGVYSR [E21V], which protein stability index is on record?
A: The protein stability index was 4.58.

Q: Which protein stability index does the source give for LNAELEEKMMQEAEKLKAQGWYSR [E21W] here?
A: The protein stability index was 3.76.

Q: With LNAELEEKMMQEAEKLKAQGYYSR [E21Y] as the variant, how does the protein stability index read?
A: The protein stability index was 5.03.

Q: With LNAELEEKMMQEAEKLKAQGECSR [Y22C] as the variant, how does the protein stability index read?
A: The protein stability index was 5.25.

Q: For LNAELEEKMMQEAEKLKAQGEDSR [Y22D], which protein stability index is on record?
A: The protein stability index was 5.99.

Q: For LNAELEEKMMQEAEKLKAQGEESR [Y22E], which protein stability index is on record?
A: The protein stability index was 4.65.

Q: With LNAELEEKMMQEAEKLKAQGEFSR [Y22F] as the variant, how does the protein stability index read?
A: Its protein stability index is 4.46.

Q: Which protein stability index does the source give for LNAELEEKMMQEAEKLKAQGEGSR [Y22G] here?
A: Its protein stability index is 5.63.

Q: With LNAELEEKMMQEAEKLKAQGEISR [Y22I] as the variant, how does the protein stability index read?
A: The protein stability index was 5.29.

Q: With LNAELEEKMMQEAEKLKAQGEKSR [Y22K] as the variant, how does the protein stability index read?
A: Its protein stability index is 5.55.

Q: For LNAELEEKMMQEAEKLKAQGELSR [Y22L], which protein stability index is on record?
A: The protein stability index was 5.34.
